Here are results for one molecule from publication PMC9487866 (Immunity, 2022).

The test concerns the target Pfs48/45-6C wild type (Plasmodium falciparum 3D7, UniProt Q8I6T1). Description: BLI. The settings on record: both partners purified.

Pfs48/45-6C wild type, sequence (Q8I6T1 291-428): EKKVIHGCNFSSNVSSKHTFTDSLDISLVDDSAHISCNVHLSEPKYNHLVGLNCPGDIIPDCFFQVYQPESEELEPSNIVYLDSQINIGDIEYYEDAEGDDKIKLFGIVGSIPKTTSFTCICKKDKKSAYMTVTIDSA

B1: TB31F Fab (Fab, V domains shown)
VH: EVQLVQSGGGLVQPGGSLRLSCAASGFTFNNYWMSWVRQAPGKGLEWVSSISNIGGTIYYPDSVKGRFTISRDNSKNTLYLQMNSLRAEDTAVYYCTRDLRMSDYFDYWGQGTMVTVSS
VL: NFMLTQPHSVSESPGKTVTISCTRSTGNIGSNYVSWYQQRPGSSPTTVIYRDDQRPSGVPDRFSGSIDRSSNSASLTISGLKTEDEADYYCHSYSTGMYIFGGGTKLTVL
As usually defined, the Kd is the constant that tells how readily two partners part at equilibrium. A lower Kd goes with a tighter complex. In the case of B1, binding was characterised by a dissociation constant (Kd) of 3.1 nM.
